Experimental data taken from US20250043028A1 (Hoffmann-La Roche, published 2025).
Changes are numbered by the printed parent chain.

B1: “2+1 IgG Crossfab”; VH/VL exchange (LC007/V9) (anti-MCSP/anti-huCD3) (bispecific antibody)
chain 1: not shown
chain 2: DIVLTQSPSSLSASLGDRVTISCSASQGIRNYLNWYQQRPDGTVKLLIYYTSSLHSGVPSRFSGSGSGTDYSLTISNLEPEDIATYYCQQYSKLPWTFGGGTKLEIKRTVAAPSVFIFPPSDEQLKSGTASVVCLLNNFYPREAKVQWKVDNALQSGNSQESVTEQDSKDSTYSLSSTLTLSKADYEKHKVYACEVTHQGLSSPVTKSFNRGEC
chain 3: DIQMTQSPSSLSASVGDRVTITCRASQDIRNYLNWYQQKPGKAPKLLIYYTSRLESGVPSRFSGSGSGTDYTLTISSLQPEDFATYYCQQGNTLPWTFGQGTKVEIKSSASTKGPSVFPLAPSSKSTSGGTAALGCLVKDYFPEPVTVSWNSGALTSGVHTFPAVLQSSGLYSLSSVVTVPSSSLGTQTYICNVNHKPSNTKVDKKVEPKSCGGGGSGGGGSEVQLQESGPGLVKPSQSLSLTCSVTGYSITSGYYWNWIRQFPGNKLEWMGYITYDGSNNYNPSLKNRISITRDTSKNQFFLKLNSVTTEDTATYYCADFDYWGQGTTLTVSSASTKGPSVFPLAPSSKSTSGGTAALGCLVKDYFPEPVTVSWNSGALTSGVHTFPAVLQSSGLYSLSSVVTVPSSSLGTQTYICNVNHKPSNTKVDKKVEPKSCDKTHTCPPCPAPEAAGGPSVFLFPPKPKDTLMISRTPEVTCVVVDVSHEDPEVKFNWYVDGVEVHNAKTKPREEQYNSTYRVVSVLTVLHQDWLNGKEYKCKVSNKALGAPIEKTISKAKGQPREPQVCTLPPSRDELTKNQVSLSCAVKGFYPSDIAVEWESNGQPENNYKTTPPVLDSDGSFFLVSKLTVDKSRWQQGNVFSCSVMHEALHNHYTQKSLSLSPGK
chain 4: EVQLVESGGGLVQPGGSLRLSCAASGYSFTGYTMNWVRQAPGKGLEWVALINPYKGVSTYNQKFKDRFTISVDKSKNTAYLQMNSLRAEDTAVYYCARSGYYGDSDWYFDVWGQGTLVTVSSASVAAPSVFIFPPSDEQLKSGTASVVCLLNNFYPREAKVQWKVDNALQSGNSQESVTEQDSKDSTYSLSSTLTLSKADYEKHKVYACEVTHQGLSSPVTKSFNRGEC
notes: vectors transfected 1:2:1:1 (second heavy chain : light chain : first heavy chain-heavy chain Crossfab : light chain Crossfab); also called 2+1 IgG Crossfab (V9)
B2: “2+1 IgG Crossfab”; CL/CH1 exchange (LC007/anti-CD3) (anti-MCSP/anti-huCD3) (bispecific antibody)
chain 1: B1 chain 2
chain 2: EVQLQESGPGLVKPSQSLSLTCSVTGYSITSGYYWNWIRQFPGNKLEWMGYITYDGSNNYNPSLKNRISITRDTSKNQFFLKLNSVTTEDTATYYCADFDYWGQGTTLTVSSASTKGPSVFPLAPSSKSTSGGTAALGCLVKDYFPEPVTVSWNSGALTSGVHTFPAVLQSSGLYSLSSVVTVPSSSLGTQTYICNVNHKPSNTKVDKKVEPKSCDKTHTCPPCPAPEAAGGPSVFLFPPKPKDTLMISRTPEVTCVVVDVSHEDPEVKFNWYVDGVEVHNAKTKPREEQYNSTYRVVSVLTVLHQDWLNGKEYKCKVSNKALGAPIEKTISKAKGQPREPQVCTLPPSRDELTKNQVSLSCAVKGFYPSDIAVEWESNGQPENNYKTTPPVLDSDGSFFLVSKLTVDKSRWQQGNVFSCSVMHEALHNHYTQKSLSLSPGK
chain 3: QAVVTQESALTTSPGETVTLTCRSSTGAVTTSNYANWVQEKPDHLFTGLIGGTNKRAPGVPARFSGSLIGDKAALTITGAQTEDEAIYFCALWYSNLWVFGGGTKLTVLSSASTKGPSVFPLAPSSKSTSGGTAALGCLVKDYFPEPVTVSWNSGALTSGVHTFPAVLQSSGLYSLSSVVTVPSSSLGTQTYICNVNHKPSNTKVDKKVEPKSC
chain 4: not shown
B3: “2+1 IgG Crossfab, inverted”; CL/CH1 exchange (LC007/anti-CD3) (anti-MCSP/anti-huCD3) (bispecific antibody)
chain 1: B1 chain 2
chain 2: B2 chain 2
chain 3: B2 chain 3
chain 4: not shown
B4: “2+1 IgG Crossfab, inverted”; CL/CH1 exchange (LC007/V9) (anti-MCSP/anti-huCD3) (bispecific antibody)
chain 1: B1 chain 2
chain 2: B2 chain 2
chain 3: DIQMTQSPSSLSASVGDRVTITCRASQDIRNYLNWYQQKPGKAPKLLIYYTSRLESGVPSRFSGSGSGTDYTLTISSLQPEDFATYYCQQGNTLPWTFGQGTKVEIKSSASTKGPSVFPLAPSSKSTSGGTAALGCLVKDYFPEPVTVSWNSGALTSGVHTFPAVLQSSGLYSLSSVVTVPSSSLGTQTYICNVNHKPSNTKVDKKVEPKSC
chain 4: not shown
B5: “2+1 IgG scFab, LALA” (anti-MCSP/anti-huCD3) (bispecific antibody)
chain 1: B1 chain 2
chain 2: not shown
chain 3: B2 chain 2 with G324P
notes: also called Fc-LALA; copies: 2 + 1 + 1

Experiments:
[1] = molecular target: T1, human MCSP expressed on tumor cells (Colo-38, WM266-4, MV-3) (human, UniProt Q6UVK1 30-2322); test: cell-based or functional assay
T1 sequence (Q6UVK1 30-2322): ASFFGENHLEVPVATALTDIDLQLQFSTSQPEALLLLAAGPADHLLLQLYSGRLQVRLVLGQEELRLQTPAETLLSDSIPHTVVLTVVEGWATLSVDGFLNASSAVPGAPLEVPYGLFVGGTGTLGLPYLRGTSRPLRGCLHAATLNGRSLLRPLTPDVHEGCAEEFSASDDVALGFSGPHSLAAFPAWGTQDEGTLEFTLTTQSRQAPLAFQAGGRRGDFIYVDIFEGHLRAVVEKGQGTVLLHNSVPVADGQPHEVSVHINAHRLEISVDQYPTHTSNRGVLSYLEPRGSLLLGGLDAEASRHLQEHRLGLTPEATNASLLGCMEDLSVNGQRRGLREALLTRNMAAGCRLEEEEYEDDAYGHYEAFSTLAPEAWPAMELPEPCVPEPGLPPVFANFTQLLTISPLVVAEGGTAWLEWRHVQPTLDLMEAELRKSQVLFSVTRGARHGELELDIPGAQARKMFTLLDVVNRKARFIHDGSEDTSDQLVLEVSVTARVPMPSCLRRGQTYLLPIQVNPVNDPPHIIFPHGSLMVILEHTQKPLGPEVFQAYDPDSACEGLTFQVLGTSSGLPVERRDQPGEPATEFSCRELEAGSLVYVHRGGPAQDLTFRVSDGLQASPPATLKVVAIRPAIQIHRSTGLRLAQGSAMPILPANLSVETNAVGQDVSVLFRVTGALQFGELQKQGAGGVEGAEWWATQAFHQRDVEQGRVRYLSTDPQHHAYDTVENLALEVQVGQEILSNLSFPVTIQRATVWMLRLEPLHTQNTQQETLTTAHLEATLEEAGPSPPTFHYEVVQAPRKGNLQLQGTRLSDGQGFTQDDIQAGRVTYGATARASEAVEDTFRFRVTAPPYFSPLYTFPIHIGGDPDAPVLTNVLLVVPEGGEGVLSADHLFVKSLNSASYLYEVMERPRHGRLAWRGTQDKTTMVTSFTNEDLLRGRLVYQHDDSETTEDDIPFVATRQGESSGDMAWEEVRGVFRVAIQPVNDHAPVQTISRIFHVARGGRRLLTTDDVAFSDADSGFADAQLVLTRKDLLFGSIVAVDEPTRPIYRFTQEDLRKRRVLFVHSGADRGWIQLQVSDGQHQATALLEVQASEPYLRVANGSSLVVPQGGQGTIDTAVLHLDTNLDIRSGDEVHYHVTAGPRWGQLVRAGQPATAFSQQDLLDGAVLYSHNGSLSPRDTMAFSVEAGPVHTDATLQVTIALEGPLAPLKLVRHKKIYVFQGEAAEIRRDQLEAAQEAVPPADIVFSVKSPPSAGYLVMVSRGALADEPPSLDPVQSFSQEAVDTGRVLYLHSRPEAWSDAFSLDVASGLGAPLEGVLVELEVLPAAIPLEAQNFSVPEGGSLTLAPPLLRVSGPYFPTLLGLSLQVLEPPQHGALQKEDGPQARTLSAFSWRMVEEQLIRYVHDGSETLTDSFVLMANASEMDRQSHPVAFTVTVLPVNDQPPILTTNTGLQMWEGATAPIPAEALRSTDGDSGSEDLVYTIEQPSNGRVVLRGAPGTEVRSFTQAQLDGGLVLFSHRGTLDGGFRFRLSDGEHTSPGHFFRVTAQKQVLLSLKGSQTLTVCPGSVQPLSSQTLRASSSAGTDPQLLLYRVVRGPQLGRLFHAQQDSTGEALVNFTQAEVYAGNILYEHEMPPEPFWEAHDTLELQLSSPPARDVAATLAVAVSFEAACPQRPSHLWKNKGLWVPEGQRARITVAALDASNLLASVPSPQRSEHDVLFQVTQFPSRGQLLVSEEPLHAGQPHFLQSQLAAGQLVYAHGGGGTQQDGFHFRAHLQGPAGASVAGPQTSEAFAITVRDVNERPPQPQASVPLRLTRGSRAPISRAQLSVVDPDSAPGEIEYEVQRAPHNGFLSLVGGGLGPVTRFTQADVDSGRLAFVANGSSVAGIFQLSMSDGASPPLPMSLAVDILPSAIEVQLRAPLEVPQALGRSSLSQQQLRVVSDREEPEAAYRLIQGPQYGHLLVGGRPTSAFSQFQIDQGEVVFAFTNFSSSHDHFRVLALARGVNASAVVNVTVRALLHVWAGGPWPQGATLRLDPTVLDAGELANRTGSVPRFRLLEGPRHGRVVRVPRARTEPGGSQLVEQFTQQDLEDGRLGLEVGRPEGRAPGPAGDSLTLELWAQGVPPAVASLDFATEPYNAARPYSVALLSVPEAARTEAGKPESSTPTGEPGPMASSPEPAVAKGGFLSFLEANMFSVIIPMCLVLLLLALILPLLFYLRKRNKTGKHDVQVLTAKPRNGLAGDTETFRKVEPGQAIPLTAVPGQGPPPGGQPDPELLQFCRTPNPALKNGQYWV

[2] = molecular target: T1, human MCSP expressed on tumor cells …; test: cell-based or functional assay; remark: listed apart in the source
[3] = molecular target: T1, human MCSP expressed on tumor cells …; test: flow cytometry on WM266-4 cells
[4] = molecular target: T2, human CD3 expressed on Jurkat cells (human, UniProt P07766 23-207); test: flow cytometry on Jurkat cells
T2 construct: CD3 as part of the T cell receptor complex on Jurkat cells; also called huCD3; human CD3 on cells
T2 sequence (P07766 23-207 limits assumed): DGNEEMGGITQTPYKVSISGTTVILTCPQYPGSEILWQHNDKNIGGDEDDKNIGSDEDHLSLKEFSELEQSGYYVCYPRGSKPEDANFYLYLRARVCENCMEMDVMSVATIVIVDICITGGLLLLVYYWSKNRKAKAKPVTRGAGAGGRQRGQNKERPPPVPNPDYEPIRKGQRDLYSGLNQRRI

[5] = molecular target: T3, HuFcγRIIIa-V158-K6H6 (human, UniProt P08637 17-208); test: SPR Biacore T100, 25 °C, kinetic fit, one concentration (1000 nM); receptor captured via anti-Penta His
T3 construct: Captured on an anti-Penta His antibody on a CM5 chip; also called human FcγRIIIa-V158; human FcγRIIIa; not shown: K6H6 tag
T3 sequence (P08637 17-208 F176V): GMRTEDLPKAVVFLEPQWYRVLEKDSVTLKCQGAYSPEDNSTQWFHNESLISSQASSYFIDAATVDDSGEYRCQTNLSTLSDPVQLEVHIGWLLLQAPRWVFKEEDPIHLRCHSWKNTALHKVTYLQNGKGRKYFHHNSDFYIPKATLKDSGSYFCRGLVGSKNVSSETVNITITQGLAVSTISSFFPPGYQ
Protocol: For analyzing interaction of different Fc-variants with human FcγRIIIa-V158 and murine FcγRIV direct coupling of around 6,500 resonance units (RU) of the anti-Penta His antibody (Qiagen) is performed on a CM5 chip at pH 5.0 using the standard amine coupling kit (Biacore, Freiburg/Germany). HuFcγRIIIa-V158-K6H6 and muFcγRIV-aviHis-biotin are captured for 60 s at 4 and 10 nM respectively.
Constructs with different Fc-mutations are passed through the flow cells for 120 s at a concentration of 1000 nM with a flow rate of 30 μl/min. The dissociation is monitored for 220 s. Bulk refractive index differences are corrected for by subtracting the response obtained in a reference flow cell. Here, the Fc-variants are flown over a surface with immobilized anti-Penta His antibody but on which HBS-EP has been injected rather than HuFcγRIIIa-V158-K6H6 or muFcγRIV-aviHis-biotin. Affinity for human FcγRIIIa-V158 and murine FcγRIV was determined for wild-type Fc using a concentration range from 500-4000 nM.
The steady state response was used to derive the dissociation constant KD by non-linear curve fitting of the Langmuir binding isotherm. Kinetic constants were derived using the Biacore T100 Evaluation Software (vAA, Biacore AB, Uppsala/Sweden), to fit rate equations for 1:1 Langmuir binding by numerical integration.

[6] = molecular target: T1, human MCSP expressed on tumor cells …; test: FACS on Colo-38 cells, dose titration
Protocol: Binding of the different bispecific constructs to CD3 on Jurkat cells (ATCC #TIB-152), and the respective tumor antigen on target cells, was determined by FACS. Briefly, cells were harvested, counted and checked for viability. 0.15-0.2 million cells per well (in PBS containing 0.1% BSA; 90 μl) were plated in a round-bottom 96-well plate and incubated with the indicated concentration of the bispecific constructs and corresponding IgG controls (10 μl) for 30 min at 4° C. For a better comparison, all constructs and IgG controls were normalized to same molarity. […] Bound constructs were detected using a FACSCantoII (Software FACS Diva). The “(scFv)₂” molecule was detected using a FITC-conjugated anti-His antibody (Lucerna, #RHIS-45F-Z). […] Unless otherwise indicated, cells were fixed with 100 μl/well fixation buffer (BD #554655) for 15 min at 4° C. in the dark, centrifuged for 6 min at 400×g and kept in 200 μl/well PBS containing 0.1% BSA until the samples were measured with FACS CantoII. EC50 values were calculated using the GraphPad Prism software.
In another experiment, the purified “2+1 IgG scFab” bispecific construct (SEQ ID NOs 5, 17, 19) and the corresponding anti human MCSP IgG were analyzed by flow cytometry for dose-dependent binding to human MCSP on Colo-38 human melanoma cells, to determine whether the bispecific construct binds to MCSP via one or both of its “arms”.

| Binder | EC50 [pM] of T cell-mediated killing (LDH release) of MV-3 cells, human PBMCs, E:T 10:1, about 24 h [1] | EC50 [pM] of T cell-mediated killing (LDH release) of WM266-4 cells, human PBMCs, E:T 10:1, about 24 h [1] | EC50 of killing (LDH release) of MV-3 cells, human PBMCs, E:T 10:1, 21 h [2] | EC50 of killing (LDH release) of WM266-4 cells, human PBMCs, E:T 10:1, 21 h [2] | EC50 [3] | EC50 [4] | Kd [5] | EC50 (read off the curve) [6] |
| --- | --- | --- | --- | --- | --- | --- | --- | --- |
| B1 | 10 pM | 12.4 pM | 0.0092 nM | 0.0331 nM | 0.95 nM | 1.66 nM |  |  |
| B2 | 11 pM | 11.3 pM |  |  | 3.1 nM | 10.3 nM |  |  |
| B3 | 3 pM | 7.1 pM |  |  | 3.4 nM | 32 nM |  |  |
| B4 | 4.1 pM | 3.7 pM |  |  | 0.57 nM | 6.1 nM |  |  |
| B5 |  |  |  |  |  |  | 2130 nM | ~0.06 nM |
